Experimental findings from patent US20150284465A1 (Chugai, published 2015) are described below.

For experiment [1], the target named is T1, soluble GPC3 core polypeptide (human, UniProt P51654 25-563).
T1 construct: also called soluble GPC3 core protein; soluble glypican-3 core
The experiment is described as follows: competitive ELISA on plate-immobilized soluble GPC3 core polypeptide; competitor: biotinylated GPC3-H2L2 antibody at 0.3 µg/mL. The procedure:
The binding activities of prepared antibodies were determined by competitive ELISA. […] The plates were incubated at 4° C. for 30 minutes or more for blocking. […] The plates were incubated at room temperature for one hour, and then washed five times with washing buffer using SkanWasher 400 (Molecular Devices). 100 μl of goat anti streptavidin alkaline phosphatase (Zymed) 20,000-times diluted with substrate buffer was added to each well. The plates were incubated at room temperature for one hour, and then washed five times with washing buffer using SkanWasher 400. Phosphatase Substrate (Sigma) was prepared at 1 mg/ml using substrate buffer, and added to each well (100 μl). The plates were incubated for one hour.
Background: In an ELISA, binding on a coated surface is turned into a signal by an enzyme label.

Experiment [2] concerns the target T2, soluble human FcRn (complex of FcRn and β2-microglobulin) (human, UniProt P55899 24-290; P16213 21-119).
T2 construct: also called hFcRn; copies: 1 + 1
The experiment is described as follows: SPR (Biacore 3000), antibody captured on Protein L or anti-human kappa chain antibody, human FcRn as analyte, pH 6.0, steady state affinity. The procedure:
(§1) The binding to human FcRn was assessed using Biacore 3000. An antibody was bound to Protein L or rabbit anti-human IgG Kappa chain antibody immobilized onto a sensor chip, human FcRn was added as an analyte for interaction with the antibody, and the affinity (KD) was calculated from the amount of bound human FcRn. Specifically, Protein L or rabbit anti-human IgG Kappa chain antibody was immobilized onto sensor chip CM5 (Biacore) by the amine coupling method using 50 mM Na-phosphate buffer (pH 6.0) containing 150 mM NaCl as the running buffer. Then, an antibody was diluted with a running buffer containing 0.02% Tween20, and injected to be bound to the chip. Human FcRn was then injected and the binding activity of the human FcRn to antibody was assessed.
(§2) The affinity was computed using BlAevaluation Software. The obtained sensorgram was used to calculate the amount of hFcRn bound to the antibody immediately before the end of human FcRn injection. The affinity of the antibody for human FcRn was calculated by fitting with the steady state affinity method.
A general note: Surface plasmon resonance follows binding to a sensor surface in real time, without labels.

The target of experiment [3] is T3, SR344 (N-terminal 1st to 344th amino acids of soluble human IL-6R) (human, UniProt P08887 20-344, limits assumed).
T3 construct: also called recombinant soluble IL-6 receptor; soluble human IL-6 receptor
T3 sequence (looked up): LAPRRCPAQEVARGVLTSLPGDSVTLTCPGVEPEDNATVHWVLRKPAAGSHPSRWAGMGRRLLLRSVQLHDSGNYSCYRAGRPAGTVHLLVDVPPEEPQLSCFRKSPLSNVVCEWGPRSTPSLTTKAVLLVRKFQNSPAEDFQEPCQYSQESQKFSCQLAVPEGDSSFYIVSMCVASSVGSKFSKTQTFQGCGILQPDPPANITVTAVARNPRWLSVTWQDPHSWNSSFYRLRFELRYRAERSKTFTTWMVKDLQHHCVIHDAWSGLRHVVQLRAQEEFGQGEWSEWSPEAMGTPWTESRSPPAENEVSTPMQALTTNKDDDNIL
The experiment is described as follows: SPR (Biacore T100), antibody captured on Protein A, soluble human IL-6 receptor as analyte. As to the method:
The antigen-antibody reaction kinetics between anti-human IL-6 receptor antibody and soluble human IL-6 receptor was analyzed using Biacore T100 (GE Healthcare Biosciences). The antigen-antibody interaction was measured by immobilizing rec-Protein A (Zymed) (hereinafter “Protein A”) onto a sensor chip, capturing an antibody with the immobilized Protein A, and then reacting the antibody with the antigen as an analyte using a method known to those skilled in the art. The running buffer used was HBS-EP+, and the flow rate was 20 μl/min. Each antibody was prepared so that about 100 RU of the antibody was bound to Protein A/G. Soluble human IL-6 receptor was prepared at 0, 0.065, 0.131, and 0.261 μg/ml using HBS-EP+ and used as an analyte. In the first step of the measurement, the antibody in solution was bound to Protein A/G, and the analyte solution was allowed to interact with the antibody. After three minutes of interaction, the solution was switched to HBS-EP+, and the dissociation phase was monitored for 10 or 15 minutes. After measurement of the dissociation phase, the sensor chip was regenerated by washing with 10 μl of 10 mM glycine-HCl (pH 1.5). The association, dissociation, and regeneration constitute one analysis cycle. Each antibody was measured according to this cycle. The obtained sensorgrams were kinetically analyzed using the Biacore-specific data analysis software, Biacore T100 Evaluation Software (GE Healthcare Biosciences).

The target of experiment [4] is T4, human-derived Fcγ receptor IIb (Recombinant Human FcRIIB/C, R&D systems) (human, UniProt P31994 46-217, limits assumed).
T4 construct: Bought recombinant protein, construct not described; also called FcγRIIb
T4 sequence (looked up): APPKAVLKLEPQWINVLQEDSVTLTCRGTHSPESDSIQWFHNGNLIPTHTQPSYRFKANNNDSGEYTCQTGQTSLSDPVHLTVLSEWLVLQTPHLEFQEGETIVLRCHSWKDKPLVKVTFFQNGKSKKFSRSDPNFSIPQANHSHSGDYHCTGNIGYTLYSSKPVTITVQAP
The experiment is described as follows: SPR (Biacore T100), FcγRIIb immobilized on CM5, antibody as analyte at 200 µg/ml, 25 C. As to the method: The FcγRIIb binding was assessed by the procedure described below. […] The amounts of bound antibody were compared. […] FcγRIIb was immobilized onto the sensor chip CM5 (Biacore) by the amine coupling method. The final amount of immobilized FcγRIIb was about 4,300 RU. Then, the running buffer was injected until the baseline was stabilized. The measurement was carried out after the baseline was stabilized. […] The running buffer used was HBS-EP+ (10 mM HEPES, 0.15M NaCl, 3 mM EDTA, 0.05% v/v Surfactant P20), and the flow rate was 20 μl/min. The measurement temperature was 25° C. The concentration of each IgG or modified form thereof was adjusted to 200 μg/ml. 20 μl of an analyte was injected and allowed to interact with the immobilized FcγRIIb. After interaction, the analyte was dissociated from FcγRIIb and the sensor chip was regenerated by injecting 200 μl of the running buffer. […] This series of injection was repeated twice.

Experiment [5] deals with T5, hFcγRIIIaV-His6 (human-derived Fcγ receptor IIIa, Val) (human, UniProt P08637 17-208, limits assumed).
T5 construct: also called FcγRIIIa (Val); not shown: His6 tag
T5 sequence (P08637 17-208 F176V limits assumed): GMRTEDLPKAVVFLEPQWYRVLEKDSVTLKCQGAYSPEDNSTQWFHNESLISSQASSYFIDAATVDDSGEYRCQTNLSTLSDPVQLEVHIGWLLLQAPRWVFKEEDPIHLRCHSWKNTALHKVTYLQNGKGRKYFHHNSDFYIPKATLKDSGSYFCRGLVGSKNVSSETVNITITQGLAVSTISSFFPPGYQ
The experiment is described as follows: SPR (Biacore T100), hFcγRIIIaV-His6 immobilized on CM5, antibody as analyte at 250 µg/ml. The procedure: The FcγRIIIa binding was assessed by the procedure described below. […] The amounts of bound antibody were compared. […] FcγRIIIa was immobilized onto the sensor chip CM5 (Biacore) by the amine coupling method. […] The running buffer used was HBS-EP+, and the flow rate was 5 μl/min. The sample concentration was adjusted to 250 μg/ml using HBS-EP+. The analysis included two steps: two minutes of association phase where 10 μl of an antibody solution was injected and the subsequent four minutes of dissociation phase where the injection was switched with HBS-EP+. After the dissociation phase, the sensor chip was regenerated by injecting 20 μl of 5 mM hydrochloric acid. The association, dissociation, and regeneration constitute one analysis cycle. Various antibody solutions were injected to obtain sensorgrams. […] 1999 August; 29(8):2613-24.

Experiment [6] addresses T2, soluble human FcRn (complex of FcRn and …). Description: SPR (Biacore 3000), antibody captured on Protein L or anti-human kappa chain antibody, human FcRn as analyte, pH 6.0, steady state affinity. The procedure: as §1, §2
The source holds these as a separate data set.

For experiment [7] the target is unchanged. Description: SPR (Biacore 3000), human FcRn as analyte, pH 6.0.

Where a chain is given by its changes, count along the chain named. Where two headings read alike, the source gives them in different places.

T2 sequence (P55899 24-290 limits assumed, chain 1 of 2): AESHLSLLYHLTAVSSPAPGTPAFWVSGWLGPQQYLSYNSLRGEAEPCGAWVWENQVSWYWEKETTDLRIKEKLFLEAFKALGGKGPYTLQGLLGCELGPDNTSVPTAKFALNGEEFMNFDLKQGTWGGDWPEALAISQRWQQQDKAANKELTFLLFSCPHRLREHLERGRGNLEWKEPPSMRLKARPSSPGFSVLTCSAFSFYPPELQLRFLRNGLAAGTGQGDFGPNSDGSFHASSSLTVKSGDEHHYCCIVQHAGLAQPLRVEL
T2 sequence (P16213 21-119 limits assumed, chain 2 of 2): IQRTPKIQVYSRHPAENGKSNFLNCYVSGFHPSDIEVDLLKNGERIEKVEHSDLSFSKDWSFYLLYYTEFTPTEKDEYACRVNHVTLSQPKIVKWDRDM
T1 sequence (P51654 other isoform, or with tags, fused parts or gaps limits assumed): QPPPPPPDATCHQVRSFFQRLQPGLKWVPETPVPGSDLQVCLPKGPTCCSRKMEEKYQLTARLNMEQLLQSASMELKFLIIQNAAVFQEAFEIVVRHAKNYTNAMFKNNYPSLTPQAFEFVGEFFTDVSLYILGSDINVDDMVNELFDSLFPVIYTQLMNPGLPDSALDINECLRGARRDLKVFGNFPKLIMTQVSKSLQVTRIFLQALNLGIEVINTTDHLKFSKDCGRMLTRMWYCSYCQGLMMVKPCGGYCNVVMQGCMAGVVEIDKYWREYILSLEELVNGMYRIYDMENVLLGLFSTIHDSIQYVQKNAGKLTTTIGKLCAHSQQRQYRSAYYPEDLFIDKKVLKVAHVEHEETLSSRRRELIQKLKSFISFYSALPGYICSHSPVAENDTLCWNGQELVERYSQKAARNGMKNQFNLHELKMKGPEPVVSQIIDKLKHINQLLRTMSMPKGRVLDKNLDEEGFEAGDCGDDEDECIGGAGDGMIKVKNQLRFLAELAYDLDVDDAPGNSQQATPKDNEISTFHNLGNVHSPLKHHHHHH

B1: GPC3_H2L2 (antibody, human IgG1, kappa, V domains shown)
VH: QVQLVQSGAEVKKPGASVKVSCKASGYTFTDYEMHWVRQAPGQGLEWMGALDPKTGDTAYSQKFKGRVTLTADKSTSTAYMELSSLTSEDTAVYYCTRFYSYTYWGQGTLVTVSS
VL: DVVMTQSPLSLPVTPGEPASISCRSSQSLVHSNRNTYLHWYLQKPGQSPQLLIYKVSNRFSGVPDRFSGSGSGTDFTLKISRVEAEDVGVYYCSQNTHVPPTFGQGTKLEIKR
In the case of B1, the “IC50 (read off the curve)” value in experiment [1] was approximately 0.9 µg/mL.

B2: GPC3_H3L3 (antibody, human IgG1, kappa, V domains shown)
VH: B1 VH with K19T, V37I, A40P, Q43E, M48I, L51I, Q62E, K63S, K65Q, G66D
VL: B1 VL with V2I, R24Q, S25A, Q27E, L109V, K112E
Take B2: the “IC50 (read off the curve)” value in experiment [1] is approximately 0.9 µg/mL.

B3: anti-IL-31 receptor antibody H0L0 with IgG1 constant region (antibody)
heavy: not shown
VL: DIQMTQSPSSLSASVGDRVTITCRTSENIYSFLAWYQQKPGKAPKLLIYNAKTLAKGVPSRFSGSGSGTDFTLTISSLQPEDFATYYCQHHYESPLTFGGGTKVEIK
notes: Not the anti-glypican 3 antibody of the same name; also called H0L0 (IgG1)
B3: the dissociation constant (Kd) (as a rule, the concentration at which binding is half-saturated) in experiment [2] is 1070 nM.

B4: anti-IL-31 receptor antibody H0L0 with M58 constant region (antibody)
heavy: QVQLVQSGAEVKKPGASVKVSCKASGYTFTGYIMNWVRQAPGQGLEWMGLINPYNGGTSYNQKFKGRVTITADESTSTAYMELSSLRSEDTAVYYCARDGYDDGPYTMDYWGQGTLVTVSASTKGPSVFPLAPSSKSTSGGTAALGCLVKDYFPEPVTVSWNSGALTSGVHTFPAVLQSSGLYSLSSVVTVPSSNFGTQTYTCNVDHKPSNTKVDKTVERKSCVECPPCPAPPVAGPSVFLFPPKPKDTLMISRTPEVTCVVVDVSQEDPEVQFNWYVDGVEVHNAKTKPREEQFNSTFRVVSVLTVVHQDWLNGKEYKCKVSNKGLPAPIEKTISKTKGQPREPQVYTLPPSQEEMTKNQVSLTCLVKGFYPSDIAVEWESNGQPENNYKTTPPMLDSDGSFFLYSKLTVDKSRWQEGNVFSCSVMHEALHNHYTQKSLSLSP
VL: B3 VL
notes: also called H0L0 (M58)
B4: the equilibrium dissociation constant (Kd) in experiment [2] turned out to be 910 nM. This Kd and that of the molecule before are within 1.5-fold of each other.

B5: 6R_a_H1L1 (antibody, human IgG1, kappa, V domains shown)
VH: QVQLQESGPGLVRPSQTLSLTCTVSGYSITSDHAWSWVRQPPGRGLEWIGYISYSGITTYNPSLKSRVTMLRDTSKNQFSLRLSSVTAADTAVYYCARVLARITAMDYWGQGSLVTVSS
VL: DIQMTQSPSSLSASVGDRVTITCRASQDISSYLNWYQQKPGKAPKLLIYYTSRLHSGVPSRFSGSGSGTDFTFTISSLQPEDIATYYCGQGNRLPYTFGQGTKVEIKR
notes: Anti-human IL-6 receptor antibody
For B5, the Kd in experiment [3] was found to be 0.067 nM. This counts as picomolar.

B6: 6R_a_H2L2 (antibody, human IgG1, kappa, V domains shown)
VH: QVQLQESGPGLVKPSETLSLTCAVSGYSISDDHAWSWVRQPPGEGLEWIGYISYSGITNYNPSLKGRVTISRDTSKNQFSLKLSSVTAADTAAYYCARVLARITAMDYWGEGTLVTVSS
VL: B5 VL with R18S, R24Q, K45E, T51G, R53E, Q79E, P80A, I83A, K107E
Consider B6, for which, in experiment [3], binding was put at a Kd of 0.03 nM. Against the preceding molecule, the Kd is about 2.2-fold lower.

B7: WT-M14ΔGK (antibody)
heavy: QVQLQESGPGLVRPSQTLSLTCTVSGYSITSDHAWSWVRQPPGRGLEWIGYISYSGITTYNPSLKSRVTMLRDTSKNQFSLRLSSVTAADTAVYYCARSLARTTAMDYWGQGSLVTVSSASTKGPSVFPLAPSSKSTSGGTAALGCLVKDYFPEPVTVSWNSGALTSGVHTFPAVLQSSGLYSLSSVVTVPSSNFGTQTYTCNVDHKPSNTKVDKTVERKSCVECPPCPAPPVAGPSVFLFPPKPKDTLMISRTPEVTCVVVDVSHEDPEVQFNWYVDGVEVHNAKTKPREEQFNSTFRVVSVLTVVHQDWLNGKEYKCKVSNKGLPSSIEKTISKAKGQPREPQVYTLPPSREEMTKNQVSLTCLVKGFYPSDIAVEWESNGQPENNYKTTPPVLDSDGSFFLYSKLTVDKSRWQQGNVFSCSVMHEALHNHYTQKSLSLSP
light: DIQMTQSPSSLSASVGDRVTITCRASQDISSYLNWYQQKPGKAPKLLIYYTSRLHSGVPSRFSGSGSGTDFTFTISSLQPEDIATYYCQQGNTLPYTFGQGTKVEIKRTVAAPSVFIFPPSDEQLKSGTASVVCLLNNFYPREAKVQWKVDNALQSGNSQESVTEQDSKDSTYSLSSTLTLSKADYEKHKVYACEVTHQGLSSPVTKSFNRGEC
Turning to B7, the binding result in experiment [4] and in experiment [5] was “binds” in each case. In addition, the Kd in experiment [6] worked out at 1850 nM.

B8: WT-M73 (antibody)
heavy: B7 heavy with H266Q, S328A, S329P, A337T, R353Q, V395M, Q417E, N432A
light: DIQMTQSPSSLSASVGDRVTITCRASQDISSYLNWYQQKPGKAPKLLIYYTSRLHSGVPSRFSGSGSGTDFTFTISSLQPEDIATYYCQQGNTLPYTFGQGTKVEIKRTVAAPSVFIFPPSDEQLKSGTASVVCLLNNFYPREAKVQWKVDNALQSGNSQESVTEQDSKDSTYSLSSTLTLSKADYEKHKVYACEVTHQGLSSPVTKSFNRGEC
In the case of B8, in experiment [7], the “binding activity relative to WT-IgG1” value is approximately 3.8 fold. The Kd in experiment [6] was found to be 420 nM.

B9: 6R_a_H3L3 (antibody, human IgG1, kappa, V domains shown)
VH: QVQLQESGPGLVKPSETLSLTCAVSGYSISDDHAWSWVRQPPGEGLEWIGYISYSGITNYNPSLQDRVTISRDNSKNTLYLQMNSLRAEDTAVYYCARLLARATAMDYWGQGILVTVSS
VL: DIQMTQSPSSLSASVGDSVTITCQASEDISSYLNWYQQKPGKAPELLIYYGSELESGVPSRFSGSGSGTDFTFTISSLEAEDAATYYCGQGNRLPYTFGQGTKVEIER
With B9, the dissociation constant Kd in experiment [3] turned out to be 0.052 nM. This counts as picomolar.
